From patent US20060014264, “Cre/lox system with lox sites having an extended spacer region” (Stowers Institute for Medical Research, published 2006) come the findings set out here.

Changes are numbered by the printed parent chain.

In data set [1] the target is T1, Cre 286::LRPHW (in E. coli) (Enterobacteria phage P1, UniProt P06956 SEQ:1-348).
T1 chain: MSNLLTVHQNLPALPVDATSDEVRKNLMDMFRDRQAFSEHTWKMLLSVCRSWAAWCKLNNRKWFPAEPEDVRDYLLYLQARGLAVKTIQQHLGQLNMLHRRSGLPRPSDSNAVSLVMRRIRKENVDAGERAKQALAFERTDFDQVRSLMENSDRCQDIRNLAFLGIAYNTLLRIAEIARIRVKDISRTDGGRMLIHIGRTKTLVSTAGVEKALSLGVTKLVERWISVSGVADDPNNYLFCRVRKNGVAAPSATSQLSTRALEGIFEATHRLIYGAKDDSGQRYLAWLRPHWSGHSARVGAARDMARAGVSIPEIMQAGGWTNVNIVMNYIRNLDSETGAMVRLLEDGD
As to the kind of experiment: cell_activity; background 0.001%. Conditions: chain copies: 2.

The target in data set [2] is T2, Cre 18::CGRNA+P15L (in E. coli) (Enterobacteria phage P1, UniProt P06956 SEQ:1-348).
T2 chain: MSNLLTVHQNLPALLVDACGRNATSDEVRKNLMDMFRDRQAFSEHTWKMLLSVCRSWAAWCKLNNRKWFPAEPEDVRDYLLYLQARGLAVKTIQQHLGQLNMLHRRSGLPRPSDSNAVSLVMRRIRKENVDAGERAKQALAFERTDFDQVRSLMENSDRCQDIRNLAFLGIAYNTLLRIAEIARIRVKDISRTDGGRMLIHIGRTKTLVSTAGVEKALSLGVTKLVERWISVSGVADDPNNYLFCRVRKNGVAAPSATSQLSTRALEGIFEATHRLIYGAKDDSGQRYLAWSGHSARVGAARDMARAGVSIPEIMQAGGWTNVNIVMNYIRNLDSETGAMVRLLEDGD
As to the kind of experiment: cell_activity; background 0.001%. Conditions: chain copies: 2.

The target in data set [3] is T3, Cre 24::CGRIR (in E. coli) (Enterobacteria phage P1, UniProt P06956 SEQ:1-348).
T3 chain: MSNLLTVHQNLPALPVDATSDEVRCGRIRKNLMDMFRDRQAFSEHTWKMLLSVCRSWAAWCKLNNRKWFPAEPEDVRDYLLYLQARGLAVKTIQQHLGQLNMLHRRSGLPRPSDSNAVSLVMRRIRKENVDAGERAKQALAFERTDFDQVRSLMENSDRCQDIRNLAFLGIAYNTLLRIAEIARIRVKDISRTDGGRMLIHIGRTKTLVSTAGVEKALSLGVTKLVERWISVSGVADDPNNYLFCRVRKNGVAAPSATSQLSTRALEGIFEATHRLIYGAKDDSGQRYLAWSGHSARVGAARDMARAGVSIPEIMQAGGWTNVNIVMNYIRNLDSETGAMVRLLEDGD
The data set can be described thus: cell_activity; background 0.001%. As to conditions: chain copies: 2.

Data set [4] concerns the target T4, Cre 280::CGRTG (in E. coli) (Enterobacteria phage P1, UniProt P06956 SEQ:1-348).
T4 chain: T1 chain with Q281C, R282G, Y283R, L284T, A285G, W286Q, L287R, R288Y, P289L, H290A
As to the kind of experiment: cell_activity; background 0.001%. As to conditions: chain copies: 2.

Data set [5] deals with Cre wt (in E. coli) (Enterobacteria phage P1, UniProt P06956 SEQ:1-343). As to the kind of experiment: cell_activity; background 0.001%. Conditions: chain copies: 2.
Data set [6] addresses T5, Cre 286::LRPHW (Enterobacteria phage P1, UniProt P06956 SEQ:1-348).
T5 chain: T1 chain
As to the kind of experiment: cleavage_in_vitro; covalent complex, top strand; 30 nM Cre. Conditions: chain copies: 2 per lox site (stated); label: 5'-32P. As to the method:
(§1) DNA cleavage reactions were in a 12 μl reaction volume containing Cre reaction buffer, 83 ng/μl BSA, 8.3 ng/μl calf thymus DNA, […] appropriate ³²P-labeled DNA substrate and 30 nM of Cre. Reactions were incubated at 37° C. for 1 hour, terminated by addition of 12 μl of 2×SDS-gels loading buffer (x: 40 mM Tris-HCl pH 6.8, 50 mM DTT, 1.0% SDS, 7.5% Glycerol, 0.01% Bromphenol Blue), heated at 95° C. for 5 minutes and then analyzed by 15% SDS-PAGE. Gels were quantified using a PhosphorImager (Molecular Dynamics, Sunnyvale, Calif.) scanner.
(§2) The ability of each mutant to catalyze cleavage at the lox⁺³ site on an unnicked 54 bp substrate was examined. Cleavage by Cre is easily detected as a slowly moving band on a polyacrylamide gel resulting from the formation of a protein-DNA complex in which the catalytic tyrosine of Cre is covalently linked to a 3′ phosphate of the labeled DNA substrate at the site of cleavage (FIG. 3).

Data set [7] has as its target T6, Cre 18::CGRNA+P15L (Enterobacteria phage P1, UniProt P06956 SEQ:1-348).
T6 chain: T2 chain
Described as above. Conditions: chain copies: 2 per lox site (stated); label: 5'-32P. As to the method:
as §1, §2

Data set [8] has as its target T7, Cre 24::CGRIR (Enterobacteria phage P1, UniProt P06956 SEQ:1-348).
T7 chain: T3 chain
The description is as above. As to conditions: chain copies: 2 per lox site (stated); label: 5'-32P. As to the method: as §1, §2

The target in data set [9] is Cre wt (Enterobacteria phage P1, UniProt P06956 SEQ:1-343). The data set can be described thus: cleavage_in_vitro; reference for mutants; cleavage strongly reduced on intact lox+3; 30 nM Cre, 10 mM MgCl2, 37 C. Conditions: chain copies: 2 per lox site (stated); label: 5'-32P. As to the method:
as §1, §2

B1: lox+3 site (in plasmid or PCR fragment) (dsDNA)
DNA 1: ACAACTTCGTATAATGATTTATGCTATACGAAGTTAT
DNA 2: ATAACTTCGTATAGCATAAATCATTATACGAAGTTGT
As to B1, the activity is 92 % recombination (KnR) in [1]; 56 % recombination (KnR) in data set [2]; 94 % recombination (KnR) in [3]; 61 % recombination (KnR) in data set [4]; 0.1 % recombination (KnR) in data set [5].

B2: lox+3 cleavage oligonucleotide KC341 duplex (dsDNA)
DNA 1: TCGAGTGCACAACTTCGTATAATGATTTATGCTATACGAAGTTATCATTCGCTAG
DNA 2: CTAGCGAATGATAACTTCGTATAGCATAAATCATTATACGAAGTTGTGCACTCGA
As to B2, the “cleavage (covalent Cre-DNA complex)” value in data set [6] is 4 fold vs wt Cre; in data set [7] it was 20 fold vs wt Cre; in data set [8], 4 fold vs wt Cre. In [9], the “covalent cleavage complex formation” value was determined as 1 fold vs wt Cre.
